According to the domain aggregation screens of Martell et al. (2025):

Assay: soluble fraction after stress (log2 fold change); higher = more stays soluble; pooled small domains, quantitative proteomics
Conditions: stress: 50 degC
In short: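 Custom libraries of small protein domains were pooled and measured in a high-throughput format, with quantitative proteomics as the read-out. Each library was stressed at 50°C. The value is the log2 fold change in the amount of each protein that stays soluble after stress, used as a measure of aggregation propensity; higher values mean more of the protein stays soluble.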

Row | Sequence | soluble fraction (log2)
1 | HMPHTDATDKQIIALILETLKDGQKHSVSEMTFPGIPREKTAQLLHQMIEEETVRIQNGVLFLPH | -0.109
2 | HMQRSVEDVFVQLRNGMDTYDMTQIEDALRILHGMELSTAQRDLLDKVQEAYNDLEYETGAALLAGFERIK | 0.0317
3 | HMDGAPVTVIKNGEVDVATTMRVGLSASELMFKLRAAGVDEVQIVHRAVLEQNGQLTIIKYGEE | 0.0259
4 | HMSAMKYTSEVFQRLSRGQFISSNSIDAETRAIYSDIEENQQEYEDYFSKIDFLLSSGDGFYYFSRK | -2.4
5 | HMGDLDLVTFGQRLRHLRRSRNMTLSELGERVGRAPSQLSLLENGKREPKLSLLTALAKALDVSVEEL | -0.75
6 | HMLKETGVITASVLNVREDIGTSSNIVAQLKKGMEVNILESRAIAGSETWYRIDAGSIKGWIFGDYI | -3.62
7 | HMDQQTKFKTALAALAASAETKDRKLTKADVKEFLEDMDLGEEQMKLVYAYLASKHIHVEGAE | 0.178
8 | HMEIMELPEYVVRSGSGLDAFREKWDLWDQGLMYDLKDKRAVFPIFIDGVMIDAVGRALAGAEPKWLRYTG | -0.165
9 | HMKLGYTVHGNVVTVKAVANGISLYNTIGQKVAESTDGQTVKAPAHGVYILSVQGKSGSRETAKIVI | -0.39
10 | HMRNTETMKEIQAFVEDYFFEYHQSPSMQKVADAIGTSKSTAYYYVMEMARNGMLHYDGKTIETPHTQKS | -1.09
11 | HMHYKLIIFENHTKSTSLDITPEQARQILGVTDYTPEQYEILAEITNRPASYFMDDLVDYYVD | -2.39
12 | HMYPMQNYSTIIGVIELRQQSVGYATTQKRYGIGSSTVTLIMKRFKELGLTLEELRAMPPKAVEVAFYPPE | -1.11
13 | HMRNDIFDQLTEREMQILQEVAKGYRNKQIADHLFISESTVKVHMKSLLKKLQVPSRTAATVLYLERYG | -1.66
14 | HMLPQYELIKQYLRHQIETGEWPIGYRTPSEPKLAEQFSVSRMTARRALQELADQGLLSRTAGSGTFVAKP | -0.483
15 | HMSEVPAAVLVTGGSINLREAPSTDATIIDVAQVGEKMTVLAEKNSWYQVSRGGRNVWVASWVVDPLT | 0.208
16 | HMKQMNETQQKAFEIYLDSATFETDYKPISEEQLAAKLDALGLKGSSSSINRWKKDFNWAQALQNKVTLAM | -0.11
17 | HMEMTDKEEELMRIFWNHGPMFVREIVELYPEPRPHFNTLSTFVRNLEQKGFVSHEAVGGSFRYYAV | -1.26
18 | HMGKIILLFSDDDGVFDTALYRVRNYDGHRFAQSLGNAEMKWRHSEDEYFDFVLTSLREDGYDIEEIE | -1.22
19 | HMGDVKLNAIYNFLKEFSALNGFPPSVREIGAKFGIKSTSTVHYYLEKLKQSGVIQQEENKKRAVVIN | -0.369
20 | HMTANTLDLTYSQFLENVKNGSVNDVTIRGNNVSGNFSDGRKFKTYAVNDPTLVEKLTKMGVNISAAPL | 0.267
21 | HMSLAISGRNQLHGIIEEVRSDGLLSQIYLRVGDQVLTAVITRDAVAELKLKRGDTAVAIMKSTEVMIARE | 0.147
22 | HMELDMTFGEKIQKLRKESGLSQEELSYQLGVSRQAISKWERDSGYPETEKIVRMSKIFDVTLDYLLNE | -0.458
23 | HMGPSLDAVREQIRDLIAEEDKSAPYSDLSLVAELEKRGIHISRRTIAKYRGEMGIPNSDQRRYF | 0.0495
24 | HMNTLSPVRILAILDGRSSMAEWQLAEELGVSIDNLSEILNKMSTDGQIRLVPSEDGRMVVP | 0.265
25 | HMNKPLFVYPNPVHQGKINLSKATNFMVVDLLGQTVNKTNYGKDFSIDNLPNGVYFIKTTEGEIIKFMK | -0.696

Row | Sequence | soluble fraction (log2)
26 | HMVAGHLQEKNGYFYIVLNYTNHEGKRKSKWITTGLTVKGNKKRAQDLLQEARKTFVPDIPT | -1.19
27 | HMKHTQTDEGELLSTLRTLFPNSSSSSLRKMLTQGRILVNQEVVHRAKHALQAGDEIEVLARQ | -0.122
28 | HMEKEKIKEALIGYFEAEPEEKFTVQELADKLKMNKAGQFNFVVQAVAQLEHDKVITLDDEGNFSLVRHE | -0.623
29 | HMEAVGLTPRQGDVLALLLQGKPNKLIARDLNLSVETVKDHVAAVLRALGVSTRTQAVLAVSQMQQQAAQ | -0.248
30 | HMQYDALVLNLLQEKNLTSESLKDAQRAFAKSHNLSTLPSKSQILQAYFQLLEQGKIEKNPDFELLL | -0.108
31 | HMSSPVGIAQATTYVYVRAGHSMQAAKVGVLSPGEKVGVTGRSAQGFSEVVYNGVHRWVGSRYLSPT | -1.4
32 | HMLIPADETEAKVLSVLSREPLHVDEIRNQAGLPIEKISATLALMELKGMVRQVGGMNYVSV | 0.122
33 | HMSEKRLHLVVDESDVNTRIDKYIADELDGYSRSFIQKLIKDNNVLVNGRAVKPNYNIGISDNIDIVLPKL | -0.00587
34 | HMTDGYAMRLERLNSLEEYVLNKGTVSLEDLAERFGVSINTIRRDLNELISRGQIKKVYGGVSSLHD | 0.0904
35 | HMPDIFDRGTAHITDAASGVAITFTRTFRIPPEVTMTHKGGTVVAIARLVGSITTGGFTAVLENT | -0.264
36 | HMGVITVRPPIVVRDFAIALNLKPFQVIGNLMELNKVVSVSSVIEEADARKVAERHGYTLEIRH | -0.516
37 | HMISKWGELVDLAVQLDIIQKSGSWFSMGDERIGQGANSVKDYLIANPDIAEKVEAEVRENLWKLN | -0.129
38 | HMTYTGTVTGVDEGGLRVRSSTSTENTSNVITKVYTGDTFDVLDTVYNGSAKWYKIGFTYNGTYTYGYVSA | -1.17
39 | HMNPHIQFWSLLRRQPDYNSAYKDELKAMFVWQWSGEKTESLNEFYKTDPYRYKSMLMDMRNRAL | -3.15
40 | HMYIKYETVLQNITERIAALRKNGTLVLDGERTLAAEFDASRGTIRKAMRQLEENGTILREGYVTRILPE | -1.61
41 | HMLPKAERREQLMAVARSVFAEQGYHTTSMEIIAETAGVSKPLLYQHFPSKLDLYLALLDAGID | -1.56
42 | HMKHKHHIIPKHKGGTDHPDNLIELTVEQHAKAHWVEFMLDGREEDYWAWKGLEGVASKKDIIYALSKR | 0.351
43 | HMDAMLGEALRLIRVYHDLKQKQAAERLEVSTSYLSEIERGLKTPTLDIIQRYATVFDMPVSSIMFFSENL | -3.03
44 | HMTNQEFNAAFKPFLDYFPTTEMTKEKINIYYLALSDLSKEQLGSAFISMVKNRVYKNFPQVAEIRQYATN | -0.0953
45 | HMEKAKVPSVIGMTEANAKRTIRDAGFKVGRVTRVESEAYDKGKVIEQQYEAGSELEKKKPISIVVSKGKK | -0.162
46 | HMDEVPMPPEYQYLRVGSRVHHATFGWGKVTRLSQPWPQTRAEVFFENIGPKKLVLAHAHLTMD | -0.727
47 | HMNTAALSLQRRNEIKKWLLEEKTLTVAALSNRFNVTYETIRRDLEILEKEGFLKKVYGGAALNERV | -0.0358
48 | HMQVPWYQRLKEKRLEYGVSQNKLATHIGISRQYMSEIETGKVTPSDSLQATLFDILEQFNPDA | -0.363
49 | HMDPEEQIQSREIWEAVERALDGMQEKGRRVVIALLEGQTQLEVSRAAGISQPLISYYLKSFRTKVRTELG | -0.48
50 | HMAKMPSIIIMKDGVIRTSELEQIERDENWLNEEMKKQHIDNPEDVFLAEFWDGKVNFILQDGKIK | 0.0716

Row | Sequence | soluble fraction (log2)
51 | HMPFDRTVQLAGARARQLQALPRYREVLRLLDEGMNPREIGQVLDPPVTRQRASALIQQAKRAQMLGLFED | -0.857
52 | HMDPKWSHVRRLLDDENPIVRKALTEELIRSPEEGLAFLEQVIREPDHLLAKHAHNLLSELGWV | 0.0264
53 | HMVITISEADVSGTYTKSITQGDWKYIRTWTPFEDERLYDLAKDPMELRDLAPAAPSKLAELRELLSALVS | -1.51
54 | HMRPLISQTLRIDRGEGDIAGPLGVLAKEYPHLSMGSYPFQKDGIYGAHVVIRGSDPGMVEAAMDKLKAAF | 0.018
55 | HMGEVVSAPMPGTILSIKVSQGQTVKRGQVLLILEAMKMENEIVAPRDGVVVQISTTQGASVETGAPLVVL | -0.0677
56 | HMLQIADEYLDRLQALFEDVRDNHFAIGDLLVELVDMHDSRRVDVINYIAGRLAISPTTLYDYENTARR | -0.792
57 | HMESRLQAAIALRKAGEHEQSREALKILADEPALRAQALLNIAWSFDNQGHERDAEGYYLAAIE | -0.131
58 | HMALPEHIEPFLRGLGQALAEGDSYEDVQERLLRAYPYLDSTEFQTALARVIFISDLWGRLN | -1.55
59 | HMSVKLMEVKGASTVVSRQVREAVSIVFPTSSMRLDLVALKARIEGVDAVKRADVYLRNGILEIQIDER | -1.99
60 | HMSDPEAFIRQTVAAAEPEGIALSVLGKRVRGKFRTFKLRDLGYAQFRPYLGDLDGIKVEQRDGQSYARLD | -0.795
61 | HMAFRIGGFVQEGSVVRQQDGGTVRFEVTDTAHSVPVTYKGSLPDLFKEGKGVVAQGKLMNGTFVADQVLA | -0.0129
62 | HMTKQDYLTALQQELNKNAVADAEDIVSEYEQHFQFKLADGFTEEEIAAKLGAPAQIALQFAG | 0.167
63 | HMKNIMRQWIELEPDQGKIRSKLYSLDRVVEETTNEVGMIKLLLEIDEKELNNLVSHNDIRLV | -0.21
64 | HMSAEDYMEMIYRLSQENGFTRVNDLASALNVQPPSVTRMIQKLAELNLIKYEKYGVIMLQPYGIEVGRSL | -1.91
65 | HMKNVADEVFEKMLNMIIEGDWKKGEMIPSENELREAFSVSRSTVRQAVQRLSALGIVRSRQGKGTYVEQV | -1.04
66 | HMKNLTEVEYSEFLESIAQDRVSKVQVDGLIIRGEMNDGQRFETVQPQVTDKALIDDMVNHRVDFSGARP | 0.0951
67 | HMQSFIEELLPVVDNFERSLAVVDPSDEIKNFLKGYEMIYNQLMEVLKSQGVEVIKTEGEEFDPNFHQA | 0.0366
68 | HMLTAPMPGTIQQILVTKGQKVRSGQTLMILEAMKMEHKIKAPNSGEIISINYSLGNRVEMGANLIEI | -1.13
69 | HMRRKNQVQSSYQKRENGTYTVRFFLSDDMGSIMDLQLMATREDMARALRERFLKDPEKIYGQIMQMLLR | -0.255
70 | HMKEPGFAPPVRALAAAPITVLAQVAGTNPGEIRARLRAAGYPVASDQQSVQSLVGGDLKAQIGVLNRILA | -0.00802
71 | HMRLLGEPLAGRLKKDVPVVTGRSTESKAIAQFFELRWSHLPDPEARTISVASGRIDFMDVGATRFSLR | 0.054
72 | HMTAFSEQLIKLRKQKGLSQEQLGAAVGVTRQTVSKWELGDTTPELGKLVQLSDYFQLSIDELVGH | -0.0666
73 | HMIGHIGSAVMLNAKLRPRLPLLHVLALTQSLGERLSAAEAQPEVYRWSDPGQSRVIAEFEGGRLTRWRLE | -2.09
74 | HMTKDEFLTTLRTLIQDMPPEDRRDVMNYYTEYFEDAGPEREQEVLRQLGSPEQVAREVLGG | -0.0225
75 | HMEAYDTMEDRTTLAPGFAKLDKRERYILHLRFFEGLTQSQIAERVGISQMHVSRLIRRSLEKLREEIGD | -0.671
